From publication doi:10.1101/2023.11.28.569054 (bioRxiv, 2023) come the findings set out here.

The chains are these.
B1: NCLN (natural protein)
chain: AHEFTVYRMQQYDLQGQPYGTRNAVLNTEARTMAAEVLSRRCVLMRLLDFSYEQYQKALRQSAGAVVIILPRAMAAVPQDVVRQFMEIEPEMLAMETAVPVYFAVEDEALLSIYKQTQAASASQGSASAAEVLLRTATANGFQMVTSGVQSKAVSDWLIASVEGRLTGLGGEDLPTIVIVAHYDAFGVAPWLSLGADSNGSGVSVLLELARLFSRLYTYKRTHAAYNLLFFASGGGKFNYQGTKRWLEDNLDHTDSSLLQDNVAFVLCLDTVGRGSSLHLHVSKPPREGTLQHAFLRELETVAAHQFPEVRFSMVHKRINLAEDVLAWEHERFAIRRLPAFTLSHLESHRDGQRSSIMDVRSRVDSKTLTRNTRIIAEALTRVIYNLTEKGTPPDMPVFTEQMQIQQEQLDSVMDWLTNQPRAAQLVDKDSTFLSTLEHHLSRYLKDVKQHHVKADKRDPEFVFYDQLKQVMNAYRVKPAVFDLLLAVGIAAYLGMAYVAVQHFSLLYKTVQRLLVKAKTQ
B2: EMC5 (natural protein)
chain: MAPSLWKGLVGIGLFALAHAAFSAAQHRSYMRLTEKEDESLPIDIVLQTLLAFAVTCYGIVHIAGEFKDMDATSELKNKTFDTLRNHPSFYVFNHRGRVLFRPSDTANSSNQDALSSNTSLKLRKLESLRR
B3: TMEM147-GFP (natural protein)
chain: MTLFHFGNCFALAYFPYFITYKCSGLSEYNAFWKCVQAGVTYLFVQLCKMLFLATFFPTWEGGIYDFIGEFMKASVDVADLIGLNLVMSRNAGKGEYKIMVAALGWATAELIMSRCIPLWVGARGIEFDWKYIQMSIDSNISLVHYIVASAQVWMITRYDLYHTFRPAVLLLMFLSVYKAFVMETFVHLCSLGSWAALLARAVVTGLLALSTLALYVAVVNVHS
B4: TMEM147 (from TMEM147-TEV-GFP, tag removed) (natural protein)
chain: B3 chain

Common to all, as to experiment: cryo-EM structure
In one assay the target is T1, EMC1 (human (endogenous in Expi293), UniProt Q8N766 23-993).
T1 sequence: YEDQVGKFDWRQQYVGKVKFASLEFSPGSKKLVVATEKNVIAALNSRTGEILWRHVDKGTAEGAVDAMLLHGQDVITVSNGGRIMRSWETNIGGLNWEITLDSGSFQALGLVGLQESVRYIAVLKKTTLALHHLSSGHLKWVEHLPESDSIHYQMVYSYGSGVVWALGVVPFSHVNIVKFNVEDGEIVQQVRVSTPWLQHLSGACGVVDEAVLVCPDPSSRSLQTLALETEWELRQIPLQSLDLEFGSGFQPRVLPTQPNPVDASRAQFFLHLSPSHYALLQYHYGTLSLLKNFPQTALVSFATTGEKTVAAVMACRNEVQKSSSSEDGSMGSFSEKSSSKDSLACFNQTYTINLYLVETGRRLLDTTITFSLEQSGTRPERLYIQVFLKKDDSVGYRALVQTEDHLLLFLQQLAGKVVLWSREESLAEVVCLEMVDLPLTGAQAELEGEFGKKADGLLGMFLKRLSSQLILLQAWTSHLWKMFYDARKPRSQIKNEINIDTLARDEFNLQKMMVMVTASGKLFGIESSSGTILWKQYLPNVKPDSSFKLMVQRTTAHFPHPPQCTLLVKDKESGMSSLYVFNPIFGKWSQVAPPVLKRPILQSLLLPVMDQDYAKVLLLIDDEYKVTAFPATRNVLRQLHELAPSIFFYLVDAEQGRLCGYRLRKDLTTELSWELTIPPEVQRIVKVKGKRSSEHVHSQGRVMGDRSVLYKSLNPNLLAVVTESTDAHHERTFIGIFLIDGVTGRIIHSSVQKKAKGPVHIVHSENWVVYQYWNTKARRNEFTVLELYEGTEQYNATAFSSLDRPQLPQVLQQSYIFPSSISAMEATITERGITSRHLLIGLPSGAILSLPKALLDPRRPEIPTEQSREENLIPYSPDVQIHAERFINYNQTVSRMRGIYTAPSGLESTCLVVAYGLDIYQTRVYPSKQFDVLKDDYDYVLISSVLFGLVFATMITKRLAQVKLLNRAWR

Assay [1] addresses T2, TMEM147 of TMEM147-5aa-TEV-GFP-40aa(ALFA)-EMC2 (human, UniProt Q9BVK8 1-224).
T2 sequence: B3 chain

In the assay “NCLN” the target is B1.
In the next assay the target is T3, NCLN of BOS (tNOMO) (human, UniProt Q969V3 43-563).
T3 sequence: B1 chain

For the molecule B1, the binding result with EMC1 was “binds”. For B2, the binding result in assay [1] was “binds”. Regarding B3, the binding result in the assay with NCLN is reported as “binds”. Regarding B4, in the assay with NCLN of BOS (tNOMO), the binding result is given as “binds”.
